Consider 4 substances from paper PMC5231407.

Where “and” joins values, the source holds several entries; their conditions need not be identical. Identical values can stand only once.

Assay [1] concerns the target LapD (Pseudomonas fluorescens Pf0-1), full-length, non-fluorescent, detergent-solubilized (Pseudomonas fluorescens Pf0-1) (UniProt Q3KK31). The assay is described as follows: SEC-MALS; apo protein, ~10 mg/ml (~140 μM), Superdex 200 10/300; 25 mM Tris-HCl pH 7.6, 250 mM NaCl, 0.005% LMNG, 0.04% CHAPS; protein-conjugate analysis.
For assay [2] the target is unchanged. The assay is described as follows: SEC-MALS; LapD incubated with 100 μM c-di-GMP and a 3-fold molar excess of LapG over LapD dimer, concentrated; 20 μM c-di-GMP in the mobile phase.
The target is the same in assay [3]. The assay is described as follows: SEC-MALS; LapD (~28 μM) incubated with 100 μM c-di-GMP, concentrated ~5-fold; 20 μM c-di-GMP in the mobile phase.
Assay [4] addresses LapG labeled with Oregon Green 488 maleimide at C135 (Pseudomonas fluorescens Pf0-1). Kind of assay: fluorescence polarisation; fluorescence anisotropy; 1 µM Oregon Green 488-labeled LapG fixed, detergent-solubilized LapD titrated 1–36 µM; without c-di-GMP; apparent.
Assay [5] has the same target. Kind of assay: fluorescence polarisation; fluorescence anisotropy; 1 µM Oregon Green 488-labeled LapG fixed, detergent-solubilized LapD titrated 1–36 µM; with 100 µM c-di-GMP; apparent.
Assay [6] addresses LapD (Pseudomonas fluorescens Pf0-1), full-length, non-fluorescent, detergent-solubilized (Pseudomonas fluorescens Pf0-1) (UniProt Q3KK31). Kind of assay: SEC-MALS; LapD incubated with LapG and c-di-GMP; c-di-GMP omitted from the mobile phase.
Assay [7] concerns the target LapD^TMcys lacking sfGFP (non-fluorescent; C304A, C397S) (Pseudomonas fluorescens Pf0-1) (UniProt Q3KK31). Kind of assay: SEC-MALS; apo protein, ~10 mg/ml (~140 μM), Superdex 200 10/300; 25 mM Tris-HCl pH 7.6, 250 mM NaCl, 0.005% LMNG, 0.04% CHAPS; protein-conjugate analysis.
The target in assay [8] is LapD^TMcys-A602C lacking sfGFP (non-fluorescent) (Pseudomonas fluorescens Pf0-1) (UniProt Q3KK31). The assay is described as above.
Assay [9] addresses LapD–sfGFP (native LapD with C-terminal monomeric superfolder GFP) (Pseudomonas fluorescens Pf0-1) (UniProt Q3KK31). Described as above.

Turning to “LapD (Pseudomonas fluorescens Pf0-1), full-length, non-fluorescent, detergent-solubilized (from UniProt Q3KK31 1-648) (receptor)”, the stoichiometry N in assay [1] was 2; in [2], 4; in assay [3], 4 and 2; in assay [6] it was 2. In addition, the Kd in assay [4] is 11.7 µM; in assay [5], 1.9 µM.
In assay [7], “LapD^TMcys lacking sfGFP (non-fluorescent; C304A, C397S) (from UniProt Q3KK31 1-648) (receptor)” showed a stoichiometry N of 2.
Substance “LapD^TMcys-A602C lacking sfGFP (non-fluorescent) (from UniProt Q3KK31 1-648) (receptor)” registered a stoichiometry N in assay [8] of 2.
In the case of “LapD–sfGFP (native LapD with C-terminal monomeric superfolder GFP) (from UniProt Q3KK31 1-648) (receptor)”, in [9], the stoichiometry N was 2.
